The first experiment deals with T1, PKC-zeta (Homo sapiens, UniProt Q05513).
T1 construct: purchased Calbiochem
T1 sequence (Q05513 1-592): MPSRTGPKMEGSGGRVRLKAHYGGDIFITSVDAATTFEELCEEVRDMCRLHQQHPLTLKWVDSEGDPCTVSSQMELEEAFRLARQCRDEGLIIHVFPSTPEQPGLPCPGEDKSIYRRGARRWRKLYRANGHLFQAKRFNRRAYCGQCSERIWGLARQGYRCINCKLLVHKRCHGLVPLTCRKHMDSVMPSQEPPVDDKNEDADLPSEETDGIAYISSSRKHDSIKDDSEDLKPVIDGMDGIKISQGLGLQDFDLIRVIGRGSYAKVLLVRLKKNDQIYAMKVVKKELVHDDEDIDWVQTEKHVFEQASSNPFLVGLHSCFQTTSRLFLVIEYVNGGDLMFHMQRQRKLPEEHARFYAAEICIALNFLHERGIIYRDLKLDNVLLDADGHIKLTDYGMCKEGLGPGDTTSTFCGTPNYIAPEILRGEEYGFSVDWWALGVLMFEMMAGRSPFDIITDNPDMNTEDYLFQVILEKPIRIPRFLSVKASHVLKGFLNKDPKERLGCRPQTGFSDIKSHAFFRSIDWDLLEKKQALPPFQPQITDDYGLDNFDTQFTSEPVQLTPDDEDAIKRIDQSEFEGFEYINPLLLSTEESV
As to the kind of experiment: In vitro kinase assay: peptide phosphorylation by PKC-zeta. In kind it is biochemical. The note with it: normalized to best substrate. As to the method: (§1) Catalytically active preparations of the kinases of interest were either purchased or prepared. Purchased and tested active kinase preparations including the following: PKC-alpha, PKC-delta, PKC-epsilon, PKC-zeta, PKC-mu, PKA, PKG from Calbiochem, ROK alpha/ROCK-II, active from Upstate Biotechnology, and AKT1 from Panvera.
(§2) The conditions of the kinase assay and the amount of active kinase used varied with the kinase and with the accuracy needed. For a typical experiment, 5-20 ng of kinase was used per well and each peptide pool was assayed in duplicate wells. Note that the absolute amount of kinase used was not usually a critical parameter, because the desired information related to specificity of the kinase not its absolute activity, and robustness of the assay depends on comparisons of the same amount of kinase on different peptides. The combination of kinase concentration and assay duration was modified to assure that the stoichiometry of peptide phosphorylation never exceeded 5%. The choice of kinase buffer depended on the kinase being analyzed. For studies of PKC, 100 mM HEPES, 0.05% Triton-X100, 1 mM CaCl2, 20 mM MgCl2, 0.2 mg/ml phosphatidyl serine (Avanti Polar Lipids), PMA 100 ng/ml was typically used. The lipid stock was prepared by transferring 3 mg phosphatidyl serine into iced mixture of 450 μl water plus 50 μl of 10% Triton-X100, sonicating 10 times on ice for 1 sec each.
(§3) The kinase reaction mixture was assembled by sequential addition to a tube held on ice of: 5 μl peptide (100 μM for final concentration of 10 μM), 15 μl of kinase (typically 5 ng/well, in appropriate kinase buffer), 30 μl of ATP (1 uCi/well of ^32P-gamma ATP in a stock of 167 μM cold ATP in the kinase buffer; for final concentration for 100 μM ATP). The mixture was rapidly warmed to desired reaction temperature (30° C. for PKC) and incubated for the desired duration (usually 10 minutes). The kinase assay was terminated by transfer to 4° C. water batch, and rapid addition of an equal volume (50 μl) of stop solution [0.1M ATP+0.1M EDTA in water, pH 8].
(§4) The peptides were then captured from the reaction mixture by transfer to a Reacti-Bind Streptavidin High Binding Capacity Coated Plates (HBC) (Pierce Biotechnology) as follows. The HBC plates were pre-rinsed three times with PBS/Tween PBS/Tween20 0.05% (PBS/Tween). Part of all of the reaction mixture was then transferred wells of a HBC plate pre-filled with 90 μl of phosphate-buffered saline (PBS); typically each aliquots of each phosphorylation reaction were transferred to duplicate HBC plates to assure accuracy by additional replication
(§5) For kinase assays done at the standard peptide concentration of 10 μM, the peptide concentration in the reaction mixture becomes 5 μM after addition of the stop solution; consequently 10 μl of the reaction (50 pMoles of peptide) was transferred to the HBC plate. More generally, the amount of reaction mixture transferred was estimated to be about 50 pMoles of peptide. […] The HBC plates were incubated for 0.5 to 1.5 hr at room temperature for complete binding of biotinylated peptides to plate-bound streptavidin. The HBC plates were then washed extensively with PBS/Tween. Five washes were done routinely and additional wash steps were added if the wash solution removed from the plate had measurable radioactivity as detected using a Geiger counter. This step is essential to obtaining a good the signal to noise ratio because the fraction of radioactivity incorporated in the peptides was a tiny fraction of the total in the reaction mixture. The wells were air-dried. A volume of 40-50 μl of microScint-20 (Packard Instruments) was added to each well. The plates were covered with stick-on film sheet. Radioactive emissions were measured in a TopCount NXT Microplate Scintillation and Luminescence Counter (Packard Instruments). Typically samples were counted for 5 minutes (or more) to improve the signal to noise ratio when counts were low. […]
Take 76 (HVRRRRGTFKRSKLRARD) [compound 76]: the PKC-zeta phosphorylation is 41%.
On the same count and under the same terms, for 77 (KKKKRASFKRKSSKKG) [compound 77] the value was 60%; for 78 (KFARKSTRRSIRLPE) [compound 78], 100%.
The same measure, in the same setting: for 79 (NRKKKRTSFKRKA) [compound 79] the value was 18%; for 80 (KKKKKRFSFKKSFKL) [compound 80], 16%; for 82 (PRLIRRGSKKRPAR) [compound 82], 38%.
Same read-out and setting: for 83 (RKIPKRPGSVHRTPSRQ) [compound 83] the value was 4%.
In the case of 84 (QKKSRLRRRASQLKI) [compound 84], the PKC-zeta phosphorylation is 19%.
On the same count and under the same terms, next, 85 (RFARKGSLRQKNV) [compound 85]: 56%; 86 (RQRKRKLSFRRRTDKD) [compound 86]: 28%; 89 (EYLERRASRRRAV) [compound 89]: 14%.
On the same count and under the same terms, next, 90 (AQIVKRASLKRGKQ) [compound 90]: 5%; 92 (DGQKRKKSLRKKLD) [compound 92]: 2%; 93 (AARKKRISVKKKQEQ) [compound 93]: 1%.
Turning to 94 (KLAVGRHSFSRRSGV) [compound 94], the PKC-zeta phosphorylation was 10%.
On the same count and under the same terms, next, 95 (KKKFRTPSFLKKSKK) [compound 95]: 5%; 96 (RGFLRSASLGRRASFHLE) [compound 96]: 22%.
Consider 99 (AGWRKKTSFRKPKED) [compound 99], for which the PKC-zeta phosphorylation stood at 10%.
Still for that read-out and setting: next, 100 (WKGKRRSKARKKRK) [compound 100]: 8%.
Still for that read-out and setting: for 101 (GAPPRRSSIRNAH) [compound 101] the value was 3%; for 102 (AGSFKRNSIKKIV) [compound 102], 2%; for 103 (LLKKRDSFRTPRDSKLE) [compound 103], 8%.
The same measure, in the same setting: next, 104 (EKIKRSSLKKVDSLKK) [compound 104]: 3%; 105 (ALRRPSLRREADD) [compound 105]: 4%; 106 (EILSRRPSYRKILND) [compound 106]: 15%.
With 107 (QKRHARVTVKYDRRE) [compound 107], the PKC-zeta phosphorylation came to 1%.
Still for that read-out and setting: for 108 (KATTKKRTLRKNDRK) [compound 108] the value was 1%; for 109 (KEVVRTDSLKGRRGR) [compound 109], 2%; for 110 (EGGDRRASGRRK) [compound 110], 3%.
Same read-out and setting: for “111 (KKKRFSFKKSFKLSGFSFKK) [compound 111]” the value was 9%; for 112 (KRPGKKGSNKRPGKR) [compound 112], 1%; for 113 (GENVLKKSMKSRVKG) [compound 113], 1%.

The same experiment, now with this note: peptide concentration 1 uM.
Consider 114 (KKKKRASFKRKSSKKG) [compound 114], for which the “phosphorylation by PKC zeta” value turned out to be 45.
Same read-out and setting: for 115 (NRKKKRTSFKRKA) [compound 115] the value was 11; for 116 (EEGTFRSSIRRLSTRRR) [compound 116], 100.
The same measure, in the same setting: next, 117 (NRKKKRTSFKRKA) [compound 117]: 20.

The experiment is the same for the next values; noted with them: peptide concentration 10 uM.
With 114 (KKKKRASFKRKSSKKG) [compound 114], the “phosphorylation by PKC zeta” value came to 51.
The same measure, in the same setting: next, 115 (NRKKKRTSFKRKA) [compound 115]: 10.
Same read-out and setting: for 116 (EEGTFRSSIRRLSTRRR) [compound 116] the value was 100; for 117 (NRKKKRTSFKRKA) [compound 117], 11.

In the next experiment the target is T2, PKC-epsilon (Homo sapiens, UniProt Q02156).
T2 construct: purchased Calbiochem
T2 sequence (Q02156 1-737): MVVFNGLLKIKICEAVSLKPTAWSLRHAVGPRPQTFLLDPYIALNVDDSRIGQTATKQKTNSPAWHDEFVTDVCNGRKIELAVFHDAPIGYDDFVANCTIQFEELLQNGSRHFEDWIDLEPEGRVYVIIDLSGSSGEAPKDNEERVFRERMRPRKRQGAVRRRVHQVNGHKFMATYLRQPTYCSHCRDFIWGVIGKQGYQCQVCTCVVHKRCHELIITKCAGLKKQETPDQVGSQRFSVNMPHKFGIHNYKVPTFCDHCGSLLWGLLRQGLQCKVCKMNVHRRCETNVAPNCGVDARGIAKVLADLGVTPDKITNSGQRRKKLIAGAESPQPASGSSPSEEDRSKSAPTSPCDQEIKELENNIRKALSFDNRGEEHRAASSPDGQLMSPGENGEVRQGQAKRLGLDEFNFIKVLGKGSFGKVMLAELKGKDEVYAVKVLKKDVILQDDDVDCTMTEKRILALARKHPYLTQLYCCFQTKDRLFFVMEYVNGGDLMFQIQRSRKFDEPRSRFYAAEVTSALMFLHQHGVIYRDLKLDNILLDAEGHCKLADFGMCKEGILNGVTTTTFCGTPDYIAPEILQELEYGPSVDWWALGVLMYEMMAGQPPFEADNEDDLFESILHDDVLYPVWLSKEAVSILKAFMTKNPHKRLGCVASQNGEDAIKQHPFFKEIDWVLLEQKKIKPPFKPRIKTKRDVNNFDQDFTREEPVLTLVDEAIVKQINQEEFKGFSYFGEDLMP
Put plainly: In vitro kinase assay: peptide phosphorylation by PKC-epsilon. Conditions: normalized to best substrate. In kind it is biochemical. On the procedure: as §1, §2, §3, §4, §5
Take 76 (HVRRRRGTFKRSKLRARD) [compound 76]: the PKC-epsilon phosphorylation was 100%.
Same read-out and setting: for 77 (KKKKRASFKRKSSKKG) [compound 77] the value was 71%; for 78 (KFARKSTRRSIRLPE) [compound 78], 84%.
Take 79 (NRKKKRTSFKRKA) [compound 79]: the PKC-epsilon phosphorylation is reported as 92%.
As to 80 (KKKKKRFSFKKSFKL) [compound 80], the PKC-epsilon phosphorylation turned out to be 71%.
The same measure, in the same setting: for 82 (PRLIRRGSKKRPAR) [compound 82] the value was 72%.
Same read-out and setting: next, 83 (RKIPKRPGSVHRTPSRQ) [compound 83]: 47%; 84 (QKKSRLRRRASQLKI) [compound 84]: 52%; 85 (RFARKGSLRQKNV) [compound 85]: 86%.
As for 86 (RQRKRKLSFRRRTDKD) [compound 86], the PKC-epsilon phosphorylation is reported as 63%.
For 89 (EYLERRASRRRAV) [compound 89], the PKC-epsilon phosphorylation amounted to 45%.
Same read-out and setting: for 90 (AQIVKRASLKRGKQ) [compound 90] the value was 49%; for 92 (DGQKRKKSLRKKLD) [compound 92], 51%; for 93 (AARKKRISVKKKQEQ) [compound 93], 40%.
Still for that read-out and setting: for 94 (KLAVGRHSFSRRSGV) [compound 94] the value was 13%; for 95 (KKKFRTPSFLKKSKK) [compound 95], 31%; for 96 (RGFLRSASLGRRASFHLE) [compound 96], 41%.
The same measure, in the same setting: for 99 (AGWRKKTSFRKPKED) [compound 99] the value was 27%.
As for 100 (WKGKRRSKARKKRK) [compound 100], the PKC-epsilon phosphorylation is 13%.
The same measure, in the same setting: next, 101 (GAPPRRSSIRNAH) [compound 101]: 19%.
On to 102 (AGSFKRNSIKKIV) [compound 102], for which the PKC-epsilon phosphorylation is recorded as 14%.
For the substance 103 (LLKKRDSFRTPRDSKLE) [compound 103], the PKC-epsilon phosphorylation was found to be 21%.
As for 104 (EKIKRSSLKKVDSLKK) [compound 104], the PKC-epsilon phosphorylation amounted to 17%.
Same read-out and setting: next, 105 (ALRRPSLRREADD) [compound 105]: 29%; 106 (EILSRRPSYRKILND) [compound 106]: 31%; 107 (QKRHARVTVKYDRRE) [compound 107]: 7%.
Same read-out and setting: for 108 (KATTKKRTLRKNDRK) [compound 108] the value was 8%; for 109 (KEVVRTDSLKGRRGR) [compound 109], 26%.
Same read-out and setting: for 110 (EGGDRRASGRRK) [compound 110] the value was 4%; for “111 (KKKRFSFKKSFKLSGFSFKK) [compound 111]”, 12%.
As to 112 (KRPGKKGSNKRPGKR) [compound 112], the PKC-epsilon phosphorylation amounted to 11%.
Still for that read-out and setting: next, 113 (GENVLKKSMKSRVKG) [compound 113]: 10%.

The same experiment, now with this note: peptide concentration 1 uM.
In the case of 114 (KKKKRASFKRKSSKKG) [compound 114], the “phosphorylation by PKC epsilon” value is recorded as 100.
On the same count and under the same terms, for 115 (NRKKKRTSFKRKA) [compound 115] the value was 91; for 116 (EEGTFRSSIRRLSTRRR) [compound 116], 92.
With 117 (NRKKKRTSFKRKA) [compound 117], the “phosphorylation by PKC epsilon” value is reported as 67.

For the origin of these results see patent publication US20050064507A1, “Determining kinase specificity” (priority 2003, published 2005).
